Experimental data reported in the PETadex activity labels (doi:10.1126/science.aad6359).

B1: unnamed (protein)
chain: MAVMTPRRERSSLLSRALQVTAAAATALVTVSLAAPAHAANPYARGPNPTDALLEASSGPFSVSEENVSRLSASGFGGGIYYPRENNTYGAVAISPGYTGTEASIAWLGERIASHGFVVITIDTITTLDQPDSRAEQLNAALNHMINRASSTVRSRIDSSRLAVMGHSMGGGGTLRLASQRPDLKAAIPLTPWHLNKNWSSVTVPTLIIGADLDTIAPVATHAKPFYNSLPSSISKAYLELDGATHFAPNIPNKIIGKYSVAWLKRFVDNDTRYTQFLCPGPRDGLFGEVEYRSTCPF
B2: unnamed (protein)
chain: MDGVLWRVRTAALMAALLALAAWALWASPSVEAQSNPYQRGPNPTRSALTADGPFSVATYTVSRLSVSGFGGGVIYYPTGTSLTFGGIAMSPGYTADASSLAWLGRRLASHGFVVLVINTNSRFDYPDSRASQLSAALNYLRTSSPSAVRARLDNARLAVAGHSMGGGGTLRIAEQNPSLKAAVPLTPWHTDKTFNTSVPVLIVGAEADTVAPVSQHAIPFYQNLPSTTPKVYVELDNASHFAPNSNNAAISVYTISWMKLWVDNDTRYRQFLCNVNDPALSFDRTNNRHCQ
B3: unnamed (protein)
chain: MQTTVTTMLLASVALAACAGGGSTPLPLPQQQPPQQEPPPPPVPLASRAACEALKDGNGDMVWPNAATVVEVAAWRDAAPATASAAALPEHCEVSGAIAKRTGIDGYPYEIKFRLRMPAEWNGRFFMEGGSGTNGSLSAATGSIGGGQIASALSRNFATIATDGGHDNAVNDNPDALGTVAFGLDPQARLDMGYNSYDQVTQAGKAAVARFYGRAADKSYFIGCSEGGREGMMLSQRFPSHYDGIVAGAPGYQLPKAGISGAWTTQSLAPAAVGLDAQGVPLINKSFSDADLHLLSQAILGTCDALDGLADGIVDNYRACQAAFDPATAANPANGQALQCVGAKTADCLSPVQVTAIKRAMAGPVNSAGTPLYNRWAWDAGMSGLSGTTYNQGWRSWWLGSFNSSANNAQRVSGFSARSWLVDFATPPEPMPMTQVAARMMKFDFDIDPLKIWATSGQFTQSSMDWHGATSTDLAAFRDRGGKMILYHGMSDAAFSALDTADYYERLGAAMPGAAGFARLFLVPGMNHCSGGPGTDRFDMLTPLVAWVERGEAPDQISAWSGTPGYFGVAARTRPLCPYPQIARYKGSGDINTEANFACAAPP
B4: unnamed (protein)
chain: MNFPRASRLMQAAVLGGLMAVSAAATAQTNPYARGPNPTAASLEASAGPFTVRSFTVSRPSGYGAGTVYYPTNAGGTVGAIAIVPGYTARQSSIKWWGPRLASHGFVVITIDTNSTLDQPSSRSSQQMAALRQVASLNGTSSSPIYGVKTARMVMGWSMGGGGSLISAANNPSLKAAAPQAPWDSSTNFSSVTVPTLIFACENDSIAPVNSSALPIYDSMSRNAKQFLEINGGSHSCANSGNSNQALIGKKGVAWMKRFMDNDTRYSTFACENPNSTRVSDFRTANCS

substrate: BHET; experiment: Proxy for plastic degradation [kcat] (s⁻¹); conditions: pH 7

Row | Protein | Proxy for plastic degradation
1 | B1 | 0.03
2 | B2 | 0.1
3 | B4 | 0.8

substrate: hcPET; experiment: Proxy for plastic degradation [Released monomer concentration (HPLC/LC-MS) (MHET+TPA)]; conditions: pH 9

Row | Protein | Proxy for plastic degradation
4 | B1 | 0.001 mM
5 | B2 | 0.001 mM
6 | B4 | 0.01 mM

substrate: PET; experiment: Proxy for plastic degradation [Released monomer concentration (HPLC/LC-MS) (TPA+MHET+BHET)]; conditions: pH 7

Row | Protein | Proxy for plastic degradation
7 | B1 | 0.003 mM
8 | B2 | 0.05 mM
9 | B4 | 0.32 mM

same assay, conditions: pH 9; 20 °C

Row | Protein | Proxy for plastic degradation
10 | B1 | 0.0001 mM
11 | B2 | 0.0005 mM
12 | B4 | 0.001 mM

same assay, conditions: pH 9; 30 °C

Row | Protein | Proxy for plastic degradation
13 | B1 | 0.0001 mM
14 | B2 | 0.01 mM
15 | B4 | 0.01 mM

same assay, conditions: pH 9; 35 °C

Row | Protein | Proxy for plastic degradation
16 | B1 | 0.0001 mM
17 | B2 | 0.01 mM
18 | B4 | 0.02 mM

same assay, conditions: pH 9; 40 °C

Row | Protein | Proxy for plastic degradation
19 | B1 | 0.001 mM
20 | B2 | 0.15 mM
21 | B4 | 0.03 mM

same assay, conditions: pH 9; 50 °C

Row | Protein | Proxy for plastic degradation
22 | B1 | 0.009 mM
23 | B2 | 1.2 mM
24 | B4 | 0.005 mM

same assay, conditions: pH 9; 60 °C

Row | Protein | Proxy for plastic degradation
25 | B1 | 0.015 mM
26 | B2 | 3.5 mM
27 | B4 | 0.0001 mM

same assay, conditions: pH 9; 70 °C

Row | Protein | Proxy for plastic degradation
28 | B1 | 0.01 mM
29 | B2 | 2 mM
30 | B4 | 0.0001 mM

same assay, conditions: pH 9; 80 °C

Row | Protein | Proxy for plastic degradation
31 | B1 | 0.001 mM
32 | B4 | 0.0001 mM

substrate: MHET; experiment: not given; conditions: pH 7; 30 °C; part of the chain shown

Row | Protein | Km | kcat | kcat/Km
33 | B3 | 7.3 µM | 31 s⁻¹ | 4.25e+06 s⁻¹ M⁻¹

substrate: pNP-C2; pNP-C4; pNP-C6; pNP-C8; experiment: Proxy for plastic degradation [kcat] (s⁻¹); conditions: pH 7

Row | Protein | Proxy for plastic degradation
34 | B4 | 0.005

substrate: PET; experiment: Proxy for plastic degradation [Released monomer concentration (HPLC/LC-MS) (TPA+MHET+BHET)]; conditions: 0 h

Row | Protein | Proxy for plastic degradation
35 | B4 | 0 mM
